Source: the supplement of paper PMC12455559

Assay: purified protein yield per well (BCA); higher = higher soluble expression
Summary of the method: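 On an OT-2 robot, lysed cells were processed by binding protein to Ni-charged magnetic beads and releasing it with SUMO protease. Expression took place in E. coli C41(DE3), in 2 mL autoinduction cultures with 100 µg/mL kanamycin, for 2 h at 37 °C followed by 40 h at 18 °C. The Pierce Rapid Gold BCA kit was used to quantify purified protein yield in each well, with values under 25 ug (0.1 mg/mL) below the detection threshold.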

Sequence | purified protein yield per well
MTVPPGNGFNGGKIYYPTDTSLGTWAAVAAVPGYTARWDAEGAWMGPWLASFGFVVIGIDTNSPTDYDTARGTQLLAALDYLTQKSPVRDRVDPNRLGVLGHSMGGGGAISAAERRPSLKAALPLAPFSPSQNLSSLRVPTMIMGARDDGTVTPSYLNGLYGSMPTATQSAYIELTSGGHGFPTWGNSNVTRRTIPWLKIFLDNDTRYTQFLCPSLADSSGISRSQTKCPYVPPGGTTTPPSGGQIVGAGSGRCLDVPNASQTNGAQVQLWDCSGNVNQKWARTDAGELRVYGSKCLDAEGSGTSPGTRVIVWDCHGGQNQRWNVNTNGTITSVGSGLCLDTNGGGTGNGAQTVLGNCNGAPTQRWTVR [ESM105] | < 25 µg
MVSGTATATPAATAAHPVRAAANPYERGPAPTVASVEAPLGPYAVSRITVARSSVSGFGGGTVHYPTSTADGTFGAVAVSPGFTGTQSSIAWYGPRLASQGFVVLTIDTLTGLDQPASRGRQLLAALDYLTGESAVRGRIDRTRLGVMGHSMGGGGSLEAAKSRTSLKAAIPLTGWNLDTTWPEVRTPTLVVGADGDTVAPVAAHSEPFYASLPGTLDKAYLELKGAVHRTPITANTTIAKYSVSWLKRFIDNDTRYERFLCPLPAPGPTIAEYRGNCPHT [TEP118] | < 25 µg
MVSYSPRYKAVAFTVAAGLVGGGLAGLAPNRHERGPDPTRALLEAPRGPLATARTVVPRAEAAGYGGGTIYHPAEMRTGETYGAVAIIPGRNGPQSGMSWYGPRLASHGFIVFTIDALRPLDRPPARGAQLQAALQQLAVRSPVATHVDAGRLAVMGHSLGGAGALEAAKARPGLRAAIPLTPSDVAGPDFSGVRVPTLILAAEKDTVAPLGRHARKFYRAIPRGTEKAYVELAGATHGFPKLPHPTVARYTIAWLKRWVDGDRRYDRVLCPSGRREPAVSFQRDTCPHD [TEP187] | < 25 µg
MYYPTTTSVGTFGAVAIAPGYTARESSIAWLGPRLASQGFVVFTIDTITTQDQPSSRGDQLRAALSYVATESSVRTRVDGSRLAVMGHSMGGGGSLQAAKDDPSIRAVIPMTPYDLDKTWPEVVAPTLVIGAEDDTVAPVSRHAEPFYESLTQASEKAYLELRGASHFAPNVSNTTIASASIAWLKRHVDADTRYERFICPAPAVSLQISEYRSTC [TEP079] | < 25 µg
NNPAPTPTPTPTPGTPSAYQRGPAPSVSFLQASRGDLSVRTSRVSSFTSGFGGGTIHYPTGTTGTMAAIVVIPGYVSAESSIEWWGPKLASYGFVVMTIDTNSGFDQPPSRARQINSALDYLVSQNSSSRSPVRGMIDTNRLGVVGWSMGGGGTLRVAEEGRIKAAIPLAPWDTTNFRDNYTPTLIFACQSDVIAPVNQHASPFYNQIPSSTDKAFVELSGGSHYCGNGGGVYNNVLGRLGVSWMKRHLDQDTRYDQFLCGPNHESDSRISEYRGNCSN [ESM126] | < 25 µg
NPYERGPAPTTASLEASRGPFATSSFTVSRPSGYGAGTVYYPTNAGGTVGAIAIVPGFLARQSSINWWGPRLASHGFVVITIDTNSTFDQPTSRSRQQLAALDQVAALARTSSSPIYNRVDTTRMGVMGWSMGGGGTLISAQNRPSLKAAAPQAPWNNSTNFSSVTVPTLILACESDSTAPVNQHASPFYNSMSRNSKQYLEINNGSHSCANSGNSNQPLIGKRGVAWMKRFMDNDTRYTSFACANPNSTRVSEFRTANCS [ESM076] | < 25 µg
NTNVPSQACNLTNANGCDSIAILNLTINQADTLYTNIITCDNYTWDGTTYTNSGIYNNVYTNSNGCDSILLNLITIPGPFSVSNIDESSGIRNGLDYDGATIYYPDNGNYLSSIVIVPGFMNTELTVQNWGPFLASYGIVTMTIGTNALTDSEFQRRDALIDAIISLKDENNRSLSPLFGRLNTSSISVGGFSKGGGGAQLVASLDSSIKAIVALYPFIDNPIVSDFDHNIPTFIISGQLDVIAPPAQHADIHYDLIPNSTKKLKYELSVGTHDALSGPYGGLNQVGERVLSFLGLFLENDSCYCPLLDITPSLSSRSKSAPLTKSLMILPAATDALRAGSKSTSAKLAEAVA [TEP057] | < 25 µg
PWTSYSAGATVYYPRTATAPFSAIVFMQPYTGTQAMNYAWGPWFASHGIVYVNYDSTTTLDTVDSRATQQMNAINALKNENNRSASPLYRKLDTSRIGVMGWSMGGGASWINSANSSIKTAMSLAGHSLTAVSIYKSGRYTKCPTMIFSGLLDTTYLGGMGQSEGVYRNIPSGIAKIHYEVRSAGHMAWGSPTSASSNVAKIALAFQKTFLDGDTRWAAYLTQPSDASTWNTASLPSTGGTTPDYPWWYWWR [TEP072] | < 25 µg
QAAANPYERGPAPSVSSIEAARGSYAVSQTSVSSLGVTGFGGGTVYYPTSTADGTFGAVVISPGFTATQSSISWLGPRLASQGFVVFTIDTNSTLDQPDSRGRQLLAALDYLTERSSVRTRIDATRLGVMGHSMGGGGTLEAAKSRPSLQAAIPLTGWNTDKSWPELRTPTLVIGADGDTVAPVATHSEPFYTSLPSSLDKAYLELNGATHFTPNSSNTTIAKYSISWLKRFIDDDTRYEQFLCPLPRPSVTIEEYRGNCPHS [TEP116] | < 25 µg
QACDSLLLESITNPGPFIVNTIDESLGIRNGPGYNGGTIFYPDHIGNFSSIVLVPGFMNSEFTIQNWGAFFASHGIITMTIGTNALTDTHIQRRDALLDAIVSLKAENERLGSPLYGSIDTSSIAVGGFSKGGGGAMLVPAIDPNIKAIISLYPWLENPTSSDLNHSVPVIIISGELDLIAPPFIHADIHYNLLPNTTMKLKYEVALGSHDIISGPNAGNGEVGVRVISWLQNFLLDDSCYCPILTLIPNTSSSYTTNILCNNTSINISSFNTGSDKKLLKITDIFGRETKEILNKYLLFIYDDGTVEKNIVLE [TEP022] | < 25 µg
QAIGPDPTAASLAADGPFAVSTQTASRATGFAGGTIYVPNTAGRYALVAFCPGFTNSQSAVAALGRRLATHGFVVVTMNTNSIFDFPASRATQLIAALNTVAAISTGPVVGKVDSARRMVAGYSMGGGGALIAARGNPSLRGAVALAPWSDSDKNFSTTTVPTAIVAGSADTTASPTDHATVFYNSMPTTTKKLLAIISGATHSFPTTSTPNQPASGYQIAWSKRFADQDVRYGPFLVTDSRLSSFASTGPF [ESM142] | < 25 µg
QARDVTAGNPYQRGPDPTVAMIEARTGPFATASASVPAGYGFNGGMVYYPTDTSLGTWGALAIVPGYSALFANEEAWMGPWLASFGFVVIGVETTTRTDSADARGTELLSALNYLTTQSPVRDRVDPNRLSVLGHSAGGAGAMLAAQRQPTLKAAVGLAPGSPVGNLSLATDTVPTMVIGGQNDSVVTPSYLSGLYATMPASTQSAFAQIAGADHVYYTRPNNVETKLLIPWLKTFLDNDTRYVPFLCPAPPDPSSLSMYVPKCPYVPGGSGPGGGGNTGALHAVGAAKCLAAPSSGTPGTQLTIGTCDGQARQTWTRTATDQLTVTTAGATLCLDASGQGGSPGTKAIVWSCNGQANQHWNVNSNGTVTSAQSGLCLDVTGGSTAEGAPVELWTCNGGGNQQWHLG [TEP085] | < 25 µg
QDCDSLKISSISNPGPYKVKKILEKDGLRDGPDYYGATLYYPEDATPPFASIVIVPGFWSYEPSIQAWGPFLASHGIVTLTIGTNILSDFPEQRALALLDAAETIKQEIIRESSPLYGSLDPTKIAVSGWSMGGGGAQMAAVLDTTLKAVMALAPWQNTQLTETAFNHPVPTLIFSGEKDPTAPASMHATVHYNYTPQTTSKLLFEIKNGNHSVANTPEGGNGDVGRIAIAWLKNLLVGQPCYCPLLLDPPVSASKYVTNLQCSSIASVSRPDGKDDFSP [TEP159] | < 25 µg
QDNPYERGPDPTESLIEASRGPFSVSQTSVSSLVSGFGGGTIYYPTSTSEGTFGAVAISPGFTATESSIAWMGPRLASHGFVVITIDTNTIYDQPSSRGDQLLAALDYMTEDNLTVRGRIDSSRLAVAGHSMGGGGSLEAASSRPALQAAVPLAPWNTDKSWSELRTPTLIIGGESDSIAPVATHSIPFYNSIPASAEKAYLELDNASHFFPQTPNTTQAKYMLSWLKRFVDNDTRYEQFLCPAPDDRDISDYRDTCPHA [TEP150] | < 25 µg
QDNSQGRYRPEGRQVGLAIGREFDERLYEVRTYEPEVGAEAFAGAMVFYPLTLSFDPPNGAVAFVPGFRAPASVYEWWGPALASLGYSVFILETNTPTDALAARADALIAAVDLIKAENQNPDAPVANKIDPEKIAIMGHSMGGGASLVAATQMGDSIKAVIPLALYCCEPGQSFSGDYGSLTLPTMIIASAEDEVAPPAEHAKLLYDSIGGSKTYVEFARGDHMFISNSGDQKATLGRFVLAFLKDILDGR [TEP019] | < 25 µg
